From US20180371066A1 (C2N DIAGNOSTICS, published 2018)

What was measured:
PEP_2875819 = target: T1, PEP_2875819; assay: peptide array of 15-mers of human tau probed with the antibody; label LIN.AA (double alanine)
T1 peptide: DRKDQGGYTAAQDQE

PEP_2875825 = target: T2, PEP_2875825; assay: as above
T2 peptide: DQGGYTMHQAAEGDT

PEP_2875811 = target: T3, PEP_2875811; assay: as above
T3 peptide: YGLGDRKDQAAYTMH

PEP_2875823 = target: T4, PEP_2875823; assay: as above
T4 peptide: KDQGGYTMHAAQEGD

PEP_2875827 = target: T5, PEP_2875827; assay: as above
T5 peptide: QGGYTMHQDAAGDTD

PEP_2875809 = target: T6, PEP_2875809; assay: as above
T6 peptide: TYGLGDRKDAAGYTM

PEP_2875817 = target: T7, PEP_2875817; assay: as above
T7 peptide: GDRKDQGGYAAHQDQ

PEP_2875821 = target: T8, PEP_2875821; assay: as above
T8 peptide: RKDQGGYTMAADQEG

rhesus monkey tau = target: T9, rhesus monkey tau (rhesus monkey, UniProt P57786 2-60); assay: direct ELISA on 96-well plates coated with tau at varied concentration; OD 650nm
T9 construct: also called rhesus tau
T9 sequence: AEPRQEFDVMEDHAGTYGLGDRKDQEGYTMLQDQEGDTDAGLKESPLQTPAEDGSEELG
Protocol: FIG. 10 illustrates the binding results for different anti human tau antibodies to either human or rhesus monkey tau. Murine anti human tau antibodies HJ8.5 and HJ8.7 alongside humanized variant VH1/VK2 (also referred to as C₂N-8E12) were tested. […] In order to determine whether these amino acid difference between the two species of tau, impacts the ability of antibodies HJ8.5/C₂N-8E12 to bind the following experiment was performed. Binding of C₂N-8E12, HJ8.5 (murine precursor of C₂N-8E12), and HJ8.7 (murine anti-human tau antibody that binds to an epitope of tau where the human and rhesus amino acid sequence is 100% conserved) to human and rhesus tau by coating 96 well ELISA plates with either human or rhesus tau at various concentrations was measured. […] As expected, HJ8.7 binds to both human and rhesus tau.

[1] = target: T10, recombinant human Tau-412 protein (human, UniProt P10636-7 1-412); assay: SPR Biacore T200, Protein A capture, mean of the VH1/VK2 runs
T10 construct: Analyte of the SPR study; also called human tau (1N4R, 412 amino acids)
T10 sequence (P10636 other isoform, or with tags, fused parts or gaps limits assumed): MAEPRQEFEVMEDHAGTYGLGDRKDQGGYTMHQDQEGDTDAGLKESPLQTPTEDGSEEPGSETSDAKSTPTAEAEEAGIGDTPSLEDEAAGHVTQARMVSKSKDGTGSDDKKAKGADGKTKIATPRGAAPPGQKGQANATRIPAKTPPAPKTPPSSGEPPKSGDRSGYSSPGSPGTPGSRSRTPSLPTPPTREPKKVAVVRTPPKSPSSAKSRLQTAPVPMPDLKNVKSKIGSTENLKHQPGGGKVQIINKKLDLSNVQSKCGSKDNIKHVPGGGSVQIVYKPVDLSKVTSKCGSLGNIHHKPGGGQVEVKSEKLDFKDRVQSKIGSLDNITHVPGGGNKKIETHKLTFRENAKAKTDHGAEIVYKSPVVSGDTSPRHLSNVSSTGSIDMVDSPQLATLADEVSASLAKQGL
Protocol: (§1) Kinetic data was obtained at a flow rate of 40 μL/min to minimize any potential mass transfer effects. Two repeats of the blank (no antigen) and the 2.5 nM concentration of the analyte were programmed into the kinetic run in order to check the stability of both the surface and analyte over the kinetic cycles. For the initial kinetic runs, 2-fold dilutions of Tau-412 from 40 nM to 0.156 nM were run. For kinetic analysis and on subsequent runs, an analyte range of 20 nM to 0.625 nM was selected. This range covered multiple analyte concentrations both above and below the reported KD.
(§2) The association phase was monitored for 500 seconds to allow some of the higher concentrations of analyte to reach steady state. In order to observe a sufficient signal decrease (>10%) during the dissociation phase of the kinetic cycle, dissociation was measured for 1200 seconds. As discussed in Section 5, the Fcs were allowed to stabilize for 600 seconds after each regeneration step. The signal from the reference channel Fc1 was subtracted from that of Fc2, Fc3 and Fc4.
(§3) The kinetic parameters for the interaction of Tau-412 with the 7 mAbs as measured using the Protein A capture system on the Biacore T200 are shown in Table F-2. To correct for differences in the capture level of the antibody between each binding cycle, a local Rₘₐₓ parameter was used in the 1-to-1 binding model. Kinetic analysis was performed in three independent runs using fresh preparations of Tau-412 and antibody. Run 1 and runs 2+3 used different vials of the antigen Tau-412; therefore the reported errors associated with the mean response probably represent variation in preparation of the analyte and differences in assay set-up and run. From run 1 to runs 2+3, the amount of antibody injected was adjusted to try to get closer to the target 300 RU capture levels.

human tau [2] = target: T11, human tau (human, UniProt P10636 2-60); assay: competition ELISA on plate-coated human tau against biotinylated HJ8.5; IC50 normalised to chimeric HJ8.5; column C2N Run 2
T11 construct: also called soluble human tau; human tau protein
T11 sequence (P10636 2-60 limits assumed): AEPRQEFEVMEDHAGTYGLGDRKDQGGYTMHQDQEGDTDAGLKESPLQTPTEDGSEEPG

[3] = target: T10, recombinant human Tau-412 protein; assay: SPR Biacore T200, mAb captured on Protein A, Tau-412 analyte, 1-to-1 model, chip A11/1
Protocol: as §1, §2, §3

human tau [4] = target: T11, human tau; assay: competition ELISA on plate-coated human tau against biotinylated HJ8.5; IC50 normalised to chimeric HJ8.5; column External
PEP_2875812 = target: T12, PEP_2875812; assay: peptide array of 15-mers of human tau probed with the antibody; label LIN
T12 peptide: GLGDRKDQGGYTMHQ

PEP_2875824 = target: T13, PEP_2875824; assay: as above
T13 peptide: DQGGYTMHQDQEGDT

PEP_2875810 = target: T14, PEP_2875810; assay: as above
T14 peptide: YGLGDRKDQGGYTMH

PEP_2875804 = target: T15, PEP_2875804; assay: as above
T15 peptide: AGTYGLGDRKDQGGY

PEP_2875816 = target: T16, PEP_2875816; assay: as above
T16 peptide: GDRKDQGGYTMHQDQ

PEP_2875814 = target: T17, PEP_2875814; assay: as above
T17 peptide: LGDRKDQGGYTMHQD

Binding Signal (PEP_2875819): 2580
Binding Signal (PEP_2875825): 2580
Binding Signal (PEP_2875811): 1880
Binding Signal (PEP_2875823): 2710
Binding Signal (PEP_2875827): 636
Binding Signal (PEP_2875809): 2760
Binding Signal (PEP_2875817): 661
Binding Signal (PEP_2875821): 2790
binding result (rhesus monkey tau): no binding
Kd [1]: 2.06 nM
koff [1]: 0.000621 s⁻¹
kon [1]: 302000 M⁻¹ s⁻¹
IC50 (Relative to Chimera) (human tau [2]): 0.91 relative to Chimera
Kd [3]: 2.18 nM
koff [3]: 0.000611 s⁻¹
kon [3]: 280000 M⁻¹ s⁻¹
IC50 (Relative to Chimera) (human tau [4]): 0.78 relative to Chimera
Binding Signal (PEP_2875812): 2730
Binding Signal (PEP_2875824): 2650
Binding Signal (PEP_2875810): 2670
Binding Signal (PEP_2875804): 1290
Binding Signal (PEP_2875816): 2700
Binding Signal (PEP_2875814): 2750
B1: VH1/VK2 humanized anti-tau antibody (C2N-8E12) (antibody, human IgG4 S228P, kappa, V domains shown)
VH: EVKVVESGGGLVQPGGSMKLSCVVSGFTFSNYWVNWVRQAPGKGLEWVAQIRLKSDNYATHYEESVKGRFTISRDDSKSSVYLQMNNLRAEDSGIYYCTNWEDYWGQGTTVTVSS
VL: DIVLTQSPDSLAVSLGERATISCRASQSVSTSRYSYIHWYQQKPGQPPKLLIKYASNLESGVPSRFSGSGSGTDFTLNIHPLEPEDFATYYCHHSWEIPLTFGQGTKLEIKR
notes: Humanized recombinant IgG4 with S241P hinge mutation, human kappa light chain; also called C2N-8EI2
